The results in this text go back to publication PMC4760761.

The target of this series is T1, CodY-6His (Listeria monocytogenes) (UniProt A0A0H3GGF1).
T1 sequence: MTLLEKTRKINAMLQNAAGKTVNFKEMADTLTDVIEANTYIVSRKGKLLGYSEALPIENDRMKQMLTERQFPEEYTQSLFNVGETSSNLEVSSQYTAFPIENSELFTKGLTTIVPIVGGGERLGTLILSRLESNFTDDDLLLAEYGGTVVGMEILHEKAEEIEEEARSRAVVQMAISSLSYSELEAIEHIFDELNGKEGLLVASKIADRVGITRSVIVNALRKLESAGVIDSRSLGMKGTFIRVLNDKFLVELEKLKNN
Description: EMSA. As to conditions: EMSA: 20 mM Tris-Cl pH 8, 50 mM KCl, 2 mM MgCl2, 0.5 mM EDTA, 1 mM DTT, 0.05% NP-40, 5% glycerol, 25 ug/ml salmon sperm DNA, 4 ng DIG-DNA, 15 min room …. Background: A gel shift assay detects complexes by their altered migration in electrophoresis.

With “CTTCTATATCTACTCATTAAAACCTAAGCAAACGTTCTCATTAACTACATTTTAAAAAATTTCAGAAAAATTGGTTTTTATGCTTGAAAATATTCTCAACAATGTGTAAACTAACAACATAGGTAAGAAAAGTTGACCAAATTTCAGAAAAATTTACTTAACGCACACAAGCCAATGTTTTTCTTCTTTATAACATTGCATGTATTTGCGTCAGGTTTTCTACTTTTCCTTATAGTCAAAATATTTAAACAAGGAGCGATTATAGTATGGCACAAACATCCACTATCCAAAACGACACAAAGGCAGCCGAAGAATACGCAGCTCGAGTGTTTGAAACAATTAAACAACGGAATCCTGGCGAAACGGAATTCCACCAAGCAGTTGAAGAATTCTTAAACTCTGTTATCCCAGCCCTTGCAAAAGAACCTAAATACGAAGCAAATGGCATTTTAGAACAGTTAACAGAACCCGAACGCCTTATCAGTTTCCGAGTTCCATGGGTGGATGATTCTGGCA (double strand) [gdhA (LMRG_00242) upstream probe]”, the Kd was determined as 57 nM. In other words, the double-digit nanomolar range. Next, “TTAACAAATGTTAGAGAAAAATTAATTCTCCAAGTGATATTCTTAAAATAATTCATGAATATTTTTTCTTATATTAGCTAATTAAGAAGATAATTAACTGCTAATCCAATTTTTAACGGAATAAATTAGTGAAAATGAAGGCCGAATTTTCCTTGTTCTAAAAAGGTTGTATTAGCGTATCACGAGGAGGGAGTATAAGTGGGATTAAATAGATTTATGCGTGCGATGATGGTAGTTTTCATTACTGCCAACTGCATTACGATTAACCCCGACATAATATTTGCAGCGACAGATA (double strand) [actA (LMRG_02626) upstream probe]”: 208 nM; fliN (LMRG_02874) upstream probe: 26 nM; “ATTCAACCCTCTTTCAAAATTCTTTTTCCCAAGTGCTTTAAATGGTACACTAATTATACCATAAGCAACTATTTTTCTATTCATTATTTACAAAAACGCTTTAACGTGCTAATATGCTAATAAACTAAAATATCGTAAAGGAGCTAACCAGATGAACTTAAATAAGAACTTACCAACTGGAACACGTGATAAACTTTTTCGTGAAGCACGAGCTGCATACAAAATTGAGCAACAAGTGAATCATTATTTT (double strand) [hisZ (LMRG_00251) upstream probe]”: 150 nM.

“ATTCGCTCAACTCCTTCAATATAACTTCAATAACAAGTATAGCAGTTTTATGAACAGGAACCAATTTATTACTATTTGAAATGATTATTTTTATTTAGAAATGTATTTTTAAGCATAATTATGAATAAATGAAAATAAAAAGGTTGATATCTAAAAGCATCGATGTTAATATAAATACAAATGTTTGTATATTTATGAATAGGGGATGTTTAAAATGGCGAAAGAAAAAATCGTATTAGCTTACTCAGGTGGGTTAGATACTTCTGTGGCAATTCAGTGGTTAGTAGAATCAGGTTATGAAGTTATTGCATGTT (double strand) [argG (LMRG_01241) upstream probe]”: the Kd stood at 70 nM. For glnR upstream probe, the Kd worked out at 74 nM. Next, “AACCGTCACTTGTGGCGGTTTTTTTGTGTTTTCATCTTTGTGAATTAATTTTGATTTCTTTTAAAATTGGTTATAACTCTCGCGAATTGGGGTAAAAGTAAAGAGGCAGATGAAGATACATTGTGAAAAATTGATATGATAGGACAAGTCGTTTGATTGACAGCGTTTTCTTGATATGATTAAATAGACTCAAGTTAATTAACATGTCAGGAGAAGAGATGACAATCGAAACGATGCAAGGGTACTAGTGTGCCTACGTTTTGATTGTCATTCTTTTTTTGAAGTTAATTGATAATCGGAATGTAAGGGGACTAGTAAGTGTTAAAATTCCGGTGCTACAAATAAGCAAGAAGAAGGAGTTGGAAAAGATGATTGACACAAGTTTAGCAACACAATTTCTAGGTGAAGTCATTGGTACGGCTATACTAATTATTTTAGGTGCTGGTGTCGTAGCAGGTGTTTCACTGAAAAGATCCAAAGCAGAGAATG (double strand) [glpF (LMRG_01431) upstream probe]”: 114 nM; “AAAAGTAACATTTATTTTTCAGAAAAAATTTTTTAATTTTTACCGCGATGGATTCATTCGCGGTTTTTTTGTATGTAATGCATTGGTATATAAGGCTTTATCTATAATGTTAGATTATCTAACATAAATTTGACAAAACATCTAACGTACATTATAATGCTACTATCATCAAAAAAATAATTATGTTTTGAGGGGGAATTGTCGTGAGCGAAAAGGAAATCCGGAGATCGATGCCGCTTTTTCCAATTGGGCCTGTGATGAAGCTAACTGATCTCACTGCTAGACAAATTCGCTACTATG (double strand) [glnR upstream probe]”: 74 nM. Next, “TATAATTCTCCTTTAATAGTTTAATGTTGGTTAAACTAGCTGAAGGATTGAAGAGTTTATTTCACTCTTACTTTCTAAACAATCCTAAAGCCATTGTTAGAAAGTCGAGAGCAGTGCAATTTTGTTTGCATCTCTTTGATCACCACCTTGCCTTCATTATAAGCACTTCTGAATTGTTCGTCAATTCTCTTTTATGAATACTCTTCTAAAAACAGGGTAAACGAAAACTATTGGACATTAGAGAAAACATCCATGGGAGGAGAAAGTAAAATGAAAAAAGTAAAAGCAAGTGAAACACTCGTACAAACATTAAAAAATTGGGGTATCGACCACGTATATGGCTTGCCCGGCGATTCGATTGACACCGTAGTTGACGCTTTACGAAAAGAAC (double strand) [poxB (LMRG_00411) upstream probe]”: 55 nM. As for “CATTAAATCCTCCCTCTTCCCATTATTACCTTTCAATATCCTTAATGGACATTTAACATCTATATACAATACACCCATTTTTTTTAAAGTGCAAGAGTTTTTTACTAAAAATGGAAAAAAATTTAATGAATGCGTTTGCTGCGAATAGAACAACTATAAGCATTGTCTCAAAAATTTTTCCTGGCTAAGAAAAAAACTGGAATAATTTTCGAAAACAAACGTGCTAATCTTATACATGTTCCAACAAACAATTACTTAGGAGGTGCTTTTCTCGTGTTAACTGATGATGTTCCAAAAAAATCACATTTACCATTAATTAAGCATCATTCTAATTACTTATAGCTTCGTTTAGTTGTATTTTCGCAAACAAAAAATTGGGAGGTAACATACAATGTCTAAACAAGCAAAGTCTTTAACCTTATTCGGATTTTTCGCCATCACGGCTTCCATGGTTATGACCGTTTATGAATATCCAACATTTGCCACTTCCG (double strand) [gadC-gadG (LMRG_01480) upstream probe]”, the dissociation constant Kd turned out to be 25 nM. Next, “GAAGAAGTGAAGACGTACCTCATTCTTTAGAGAGCATTTACTGGTGAGTAAACGTATTTAAAGAGTGGAGCGTTTTTATTTTTGAATGTTTTAATTTTATTAGTTAGGGTAAAATCGACAGTATACTTAAAATTAGATGGGGTGAAGTGATGAATATTAGTATAGAAATAAAAGAACGTGATACTGACCACATAGACATATTTGTTGCTGGGGAGATCGATGCTTATACAGCGCCAAAGGTAAAAGAAGCATTAGAAGTATATCAAGTTAAAGAGGG (double strand) [rsbV-sigB (LMRG_02317) upstream probe]”: 152 nM; “GTTAATTGCCTCCATTAATATACATATTATAGTTACCATTTTACTATAAAAAAGAACAACTTGACAGAAAAAAAGTGATTAAAAACAGCTCCAGCACTTATTTCCGTGTATCAATACAGAGGTAAAAAGGCATGCCACTTAGGCAAAAGACGGCTATGCTCTTAAGAAATTTTTTTGCTGTTATACCCTACTATTTTGCTATTCTAACAGCAATTTCAAAAAAACACTTCATATTAAGGTCTGTTCGTGATAAAATGAACATAGTTGATAATGATTATCATGTTCATTACATAACATAAAAGGAGGCCTGCTAGCTTATGCAATTAAATGAAACTGCTGTCGGTGAAAAAGTTCGCATCTCAGAATTAAAAATTGAGAACGCTATGCTTAAACGTCGCTTACTTGCACTTGGTTGCGATGAAGGTTGTGATATTTGTATCAAACAAAAAGGACTATTTGGTG (double strand) [feoA (LMRG_01257) upstream probe]”: 90 nM.

For orientation: Kd means the equilibrium constant for the complex coming apart.
